Patent US12679878B2, “CRF2 receptor agonists and their use in therapy” (SANOFI, priority 2020, dated 2026)
Starred links: 1 amine or outer side, 2 acyl side, 3 side chain; linkers in the order of their positions; H or OH if unused. Non-standard residues stand in square brackets, D forms with d. Groups on a side chain read outwards from the residue. No end group written: not given here. *: point of attachment. C18 diacid = O=C(O)CCCCCCCCCCCCCCCCC(=O)*; γGlu = O=C(O)[C@H](CCC(=O)[*:2])N[*:1]; AEEA = NCCOCCOCC(=O)O; Aib = CC(C)(N)C(=O)O

T1: CRF1R receptor (anti-target) (UniProt P34998 24-415, limits assumed)
T1 sequence (looked up): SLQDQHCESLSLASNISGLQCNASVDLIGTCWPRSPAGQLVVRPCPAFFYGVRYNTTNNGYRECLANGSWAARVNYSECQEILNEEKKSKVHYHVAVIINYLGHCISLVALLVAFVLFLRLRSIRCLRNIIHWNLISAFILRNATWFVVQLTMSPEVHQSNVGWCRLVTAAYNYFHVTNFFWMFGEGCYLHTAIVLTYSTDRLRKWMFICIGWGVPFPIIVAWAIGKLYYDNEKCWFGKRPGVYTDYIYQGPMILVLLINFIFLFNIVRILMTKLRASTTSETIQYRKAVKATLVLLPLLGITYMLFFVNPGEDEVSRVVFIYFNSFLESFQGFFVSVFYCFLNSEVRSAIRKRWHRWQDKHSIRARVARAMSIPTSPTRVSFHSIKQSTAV


Target: T1, CRF1R receptor (anti-target)
Test: cell-based or functional assay

| EC50 [nM] 0% HSA (cAMP, HTRF) [nM] | Emax (%) (100% = Sauvagine at 100 nM) | Binder |
| --- | --- | --- |
| > 100 | 9 | IVLSLD[dV]PIKLK([AEEA-AEEA-γGlu-C18 diacid])QILLKQERQKKQREQAETNKQILAQV-NH2 (N-terminus assumed; SMILES CC[C@H](C)[C@H](N)C(=O)N[C@H](C(=O)N[C@@H](CC(C)C)C(=O)N[C@@H](CO)C(=O)N[C@@H](CC(C)C)C(=O)N[C@@H](CC(=O)O)C(=O)N[C@@H](C(=O)N1CCC[C@H]1C(=O)N[C@H](C(=O)N[C@@H](CCCCN)C(=O)N[C@@H](CC(C)C)C(=O)N[C@@H](CCCCNC(=O)COCCOCCNC(=O)COCCOCCNC(=O)CC[C@H](NC(=O)CCCCCCCCCCCCCCCCC(=O)O)C(=O)O)C(=O)N[C@@H](CCC(N)=O)C(=O)N[C@H](C(=O)N[C@@H](CC(C)C)C(=O)N[C@@H](CC(C)C)C(=O)N[C@@H](CCCCN)C(=O)N[C@@H](CCC(N)=O)C(=O)N[C@@H](CCC(=O)O)C(=O)N[C@@H](CCCNC(=N)N)C(=O)N[C@@H](CCC(N)=O)C(=O)N[C@@H](CCCCN)C(=O)N[C@@H](CCCCN)C(=O)N[C@@H](CCC(N)=O)C(=O)N[C@@H](CCCNC(=N)N)C(=O)N[C@@H](CCC(=O)O)C(=O)N[C@@H](CCC(N)=O)C(=O)N[C@@H](C)C(=O)N[C@@H](CCC(=O)O)C(=O)N[C@H](C(=O)N[C@@H](CC(N)=O)C(=O)N[C@@H](CCCCN)C(=O)N[C@@H](CCC(N)=O)C(=O)N[C@H](C(=O)N[C@@H](CC(C)C)C(=O)N[C@@H](C)C(=O)N[C@@H](CCC(N)=O)C(=O)N[C@H](C(N)=O)C(C)C)[C@@H](C)CC)[C@@H](C)O)[C@@H](C)CC)[C@@H](C)CC)C(C)C)C(C)C) [peptide of SEQ ID NO: 102] |
| > 100 | 14 | IVLSLDVPIKLK([AEEA-AEEA-γGlu-C18 diacid])QILLEQERQK[Aib]QREQAETNKQILAQV-NH2 (N-terminus assumed; SMILES CC[C@H](C)[C@H](N)C(=O)N[C@H](C(=O)N[C@@H](CC(C)C)C(=O)N[C@@H](CO)C(=O)N[C@@H](CC(C)C)C(=O)N[C@@H](CC(=O)O)C(=O)N[C@H](C(=O)N1CCC[C@H]1C(=O)N[C@H](C(=O)N[C@@H](CCCCN)C(=O)N[C@@H](CC(C)C)C(=O)N[C@@H](CCCCNC(=O)COCCOCCNC(=O)COCCOCCNC(=O)CC[C@H](NC(=O)CCCCCCCCCCCCCCCCC(=O)O)C(=O)O)C(=O)N[C@@H](CCC(N)=O)C(=O)N[C@H](C(=O)N[C@@H](CC(C)C)C(=O)N[C@@H](CC(C)C)C(=O)N[C@@H](CCC(=O)O)C(=O)N[C@@H](CCC(N)=O)C(=O)N[C@@H](CCC(=O)O)C(=O)N[C@@H](CCCNC(=N)N)C(=O)N[C@@H](CCC(N)=O)C(=O)N[C@@H](CCCCN)C(=O)NC(C)(C)C(=O)N[C@@H](CCC(N)=O)C(=O)N[C@@H](CCCNC(=N)N)C(=O)N[C@@H](CCC(=O)O)C(=O)N[C@@H](CCC(N)=O)C(=O)N[C@@H](C)C(=O)N[C@@H](CCC(=O)O)C(=O)N[C@H](C(=O)N[C@@H](CC(N)=O)C(=O)N[C@@H](CCCCN)C(=O)N[C@@H](CCC(N)=O)C(=O)N[C@H](C(=O)N[C@@H](CC(C)C)C(=O)N[C@@H](C)C(=O)N[C@@H](CCC(N)=O)C(=O)N[C@H](C(N)=O)C(C)C)[C@@H](C)CC)[C@@H](C)O)[C@@H](C)CC)[C@@H](C)CC)C(C)C)C(C)C) [peptide of SEQ ID NO: 103] |
| > 100 | 5.1 | IVLSLDVPIKLK([AEEA-AEEA-γGlu-C18 diacid])QILLEQERQK[Aib]QREQAETNKQILERV-NH2 (N-terminus assumed; SMILES CC[C@H](C)[C@H](N)C(=O)N[C@H](C(=O)N[C@@H](CC(C)C)C(=O)N[C@@H](CO)C(=O)N[C@@H](CC(C)C)C(=O)N[C@@H](CC(=O)O)C(=O)N[C@H](C(=O)N1CCC[C@H]1C(=O)N[C@H](C(=O)N[C@@H](CCCCN)C(=O)N[C@@H](CC(C)C)C(=O)N[C@@H](CCCCNC(=O)COCCOCCNC(=O)COCCOCCNC(=O)CC[C@H](NC(=O)CCCCCCCCCCCCCCCCC(=O)O)C(=O)O)C(=O)N[C@@H](CCC(N)=O)C(=O)N[C@H](C(=O)N[C@@H](CC(C)C)C(=O)N[C@@H](CC(C)C)C(=O)N[C@@H](CCC(=O)O)C(=O)N[C@@H](CCC(N)=O)C(=O)N[C@@H](CCC(=O)O)C(=O)N[C@@H](CCCNC(=N)N)C(=O)N[C@@H](CCC(N)=O)C(=O)N[C@@H](CCCCN)C(=O)NC(C)(C)C(=O)N[C@@H](CCC(N)=O)C(=O)N[C@@H](CCCNC(=N)N)C(=O)N[C@@H](CCC(=O)O)C(=O)N[C@@H](CCC(N)=O)C(=O)N[C@@H](C)C(=O)N[C@@H](CCC(=O)O)C(=O)N[C@H](C(=O)N[C@@H](CC(N)=O)C(=O)N[C@@H](CCCCN)C(=O)N[C@@H](CCC(N)=O)C(=O)N[C@H](C(=O)N[C@@H](CC(C)C)C(=O)N[C@@H](CCC(=O)O)C(=O)N[C@@H](CCCNC(=N)N)C(=O)N[C@H](C(N)=O)C(C)C)[C@@H](C)CC)[C@@H](C)O)[C@@H](C)CC)[C@@H](C)CC)C(C)C)C(C)C) [peptide of SEQ ID NO: 106] |
| > 100 | 15.4 | IVLSLDVPIKLK([AEEA-AEEA-γGlu-C18 diacid])QILLEQERQK[Aib]QRQQAETNKQILAQV-NH2 (N-terminus assumed; SMILES CC[C@H](C)[C@H](N)C(=O)N[C@H](C(=O)N[C@@H](CC(C)C)C(=O)N[C@@H](CO)C(=O)N[C@@H](CC(C)C)C(=O)N[C@@H](CC(=O)O)C(=O)N[C@H](C(=O)N1CCC[C@H]1C(=O)N[C@H](C(=O)N[C@@H](CCCCN)C(=O)N[C@@H](CC(C)C)C(=O)N[C@@H](CCCCNC(=O)COCCOCCNC(=O)COCCOCCNC(=O)CC[C@H](NC(=O)CCCCCCCCCCCCCCCCC(=O)O)C(=O)O)C(=O)N[C@@H](CCC(N)=O)C(=O)N[C@H](C(=O)N[C@@H](CC(C)C)C(=O)N[C@@H](CC(C)C)C(=O)N[C@@H](CCC(=O)O)C(=O)N[C@@H](CCC(N)=O)C(=O)N[C@@H](CCC(=O)O)C(=O)N[C@@H](CCCNC(=N)N)C(=O)N[C@@H](CCC(N)=O)C(=O)N[C@@H](CCCCN)C(=O)NC(C)(C)C(=O)N[C@@H](CCC(N)=O)C(=O)N[C@@H](CCCNC(=N)N)C(=O)N[C@@H](CCC(N)=O)C(=O)N[C@@H](CCC(N)=O)C(=O)N[C@@H](C)C(=O)N[C@@H](CCC(=O)O)C(=O)N[C@H](C(=O)N[C@@H](CC(N)=O)C(=O)N[C@@H](CCCCN)C(=O)N[C@@H](CCC(N)=O)C(=O)N[C@H](C(=O)N[C@@H](CC(C)C)C(=O)N[C@@H](C)C(=O)N[C@@H](CCC(N)=O)C(=O)N[C@H](C(N)=O)C(C)C)[C@@H](C)CC)[C@@H](C)O)[C@@H](C)CC)[C@@H](C)CC)C(C)C)C(C)C) [peptide of SEQ ID NO: 105] |
| > 100 | -2 | IVLSLDVPIKLK([AEEA-AEEA-γGlu-C18 diacid])QILLKQERQK[Aib]QRQKAETNKQILAQV-NH2 (N-terminus assumed; SMILES CC[C@H](C)[C@H](N)C(=O)N[C@H](C(=O)N[C@@H](CC(C)C)C(=O)N[C@@H](CO)C(=O)N[C@@H](CC(C)C)C(=O)N[C@@H](CC(=O)O)C(=O)N[C@H](C(=O)N1CCC[C@H]1C(=O)N[C@H](C(=O)N[C@@H](CCCCN)C(=O)N[C@@H](CC(C)C)C(=O)N[C@@H](CCCCNC(=O)COCCOCCNC(=O)COCCOCCNC(=O)CC[C@H](NC(=O)CCCCCCCCCCCCCCCCC(=O)O)C(=O)O)C(=O)N[C@@H](CCC(N)=O)C(=O)N[C@H](C(=O)N[C@@H](CC(C)C)C(=O)N[C@@H](CC(C)C)C(=O)N[C@@H](CCCCN)C(=O)N[C@@H](CCC(N)=O)C(=O)N[C@@H](CCC(=O)O)C(=O)N[C@@H](CCCNC(=N)N)C(=O)N[C@@H](CCC(N)=O)C(=O)N[C@@H](CCCCN)C(=O)NC(C)(C)C(=O)N[C@@H](CCC(N)=O)C(=O)N[C@@H](CCCNC(=N)N)C(=O)N[C@@H](CCC(N)=O)C(=O)N[C@@H](CCCCN)C(=O)N[C@@H](C)C(=O)N[C@@H](CCC(=O)O)C(=O)N[C@H](C(=O)N[C@@H](CC(N)=O)C(=O)N[C@@H](CCCCN)C(=O)N[C@@H](CCC(N)=O)C(=O)N[C@H](C(=O)N[C@@H](CC(C)C)C(=O)N[C@@H](C)C(=O)N[C@@H](CCC(N)=O)C(=O)N[C@H](C(N)=O)C(C)C)[C@@H](C)CC)[C@@H](C)O)[C@@H](C)CC)[C@@H](C)CC)C(C)C)C(C)C) [peptide of SEQ ID NO: 108] |
| > 100 | 3.7 | IVLSLDVPIKLK([AEEA-AEEA-γGlu-C18 diacid])QILLKQERQK[Aib]QREQAETNKQILAQV-NH2 (N-terminus assumed; SMILES CC[C@H](C)[C@H](N)C(=O)N[C@H](C(=O)N[C@@H](CC(C)C)C(=O)N[C@@H](CO)C(=O)N[C@@H](CC(C)C)C(=O)N[C@@H](CC(=O)O)C(=O)N[C@H](C(=O)N1CCC[C@H]1C(=O)N[C@H](C(=O)N[C@@H](CCCCN)C(=O)N[C@@H](CC(C)C)C(=O)N[C@@H](CCCCNC(=O)COCCOCCNC(=O)COCCOCCNC(=O)CC[C@H](NC(=O)CCCCCCCCCCCCCCCCC(=O)O)C(=O)O)C(=O)N[C@@H](CCC(N)=O)C(=O)N[C@H](C(=O)N[C@@H](CC(C)C)C(=O)N[C@@H](CC(C)C)C(=O)N[C@@H](CCCCN)C(=O)N[C@@H](CCC(N)=O)C(=O)N[C@@H](CCC(=O)O)C(=O)N[C@@H](CCCNC(=N)N)C(=O)N[C@@H](CCC(N)=O)C(=O)N[C@@H](CCCCN)C(=O)NC(C)(C)C(=O)N[C@@H](CCC(N)=O)C(=O)N[C@@H](CCCNC(=N)N)C(=O)N[C@@H](CCC(=O)O)C(=O)N[C@@H](CCC(N)=O)C(=O)N[C@@H](C)C(=O)N[C@@H](CCC(=O)O)C(=O)N[C@H](C(=O)N[C@@H](CC(N)=O)C(=O)N[C@@H](CCCCN)C(=O)N[C@@H](CCC(N)=O)C(=O)N[C@H](C(=O)N[C@@H](CC(C)C)C(=O)N[C@@H](C)C(=O)N[C@@H](CCC(N)=O)C(=O)N[C@H](C(N)=O)C(C)C)[C@@H](C)CC)[C@@H](C)O)[C@@H](C)CC)[C@@H](C)CC)C(C)C)C(C)C) [peptide of SEQ ID NO: 104] |
